From paper PMC1253830

Assays:
Assay in all cases: two-hybrid
[1] = biological target: pGBKT7-CcLim15NT 1-104 (Coprinus cinereus)
[2] = biological target: pGBKT7-CcLim15CT 104-345 (Coprinus cinereus)
[3] = biological target: pGBKT7-CcLim15 (Coprinus cinereus Lim15/Dmc1, residues 1-345, fused to the GAL4 DNA-binding domain) (Coprinus cinereus)

| Substance | β-galactosidase activity [1] | β-galactosidase activity [2] | β-galactosidase activity [3] |
| --- | --- | --- | --- |
| pGADT7-CcTopIICT 1066-1569 (domain or fragment) | < 1 | 3.49 | 16.5 |
| pGADT7-CcTopIIMD 751-1065 (domain or fragment) | – | – | < 1 |
| pGADT7-CcTopIINT 1-750 (domain or fragment) | – | – | < 1 |
